For assay [1], the target named is mKO-^MalFNTPBP2 (E. coli). The assay is described as follows: FRET or BRET; three-plasmid FRET in LMC500 cells; third plasmid expresses non-fused MreC.
The target of assay [2] is mKO-^MalFNTPBP2 (E. coli). The assay can be described thus: FRET or BRET; two-plasmid spectral FRET in E. coli LMC500 cells; mCherry fusion as acceptor, mKO fusion as donor; Gb4 medium, steady state at 28 C, 15 uM IPTG for two mass doublings, FAGA-fixed; acceptor FRET efficiency (EfA) by spectral unmixing.
In assay [3] the target is mKO-^MalFNTPBP2 (E. coli). The assay is described as follows: FRET or BRET; three-plasmid FRET in LMC500 cells; third plasmid: empty pSG4K5 vector.
In assay [4] the target is mKO-^MalFNTPBP2 (E. coli). The assay is described as follows: FRET or BRET; three-plasmid FRET in LMC500 cells; third plasmid expresses non-fused MreCD.
Assay [5] concerns the target mKO-^MalFNTPBP2 (E. coli). The assay is described as follows: FRET or BRET; as the two-plasmid FRET, cells treated with mecillinam (2 mg/L) for two mass doublings.
Assay [6] deals with mKO-^MalFNTPBP2 (E. coli). The assay can be described thus: FRET or BRET; two-plasmid FRET in LMC500 cells; mCherry-MreC and non-fused MreD co-expressed from one plasmid (mCh-MreCD), mKO fusion as donor.

With “PBP2 (wild type), fused to mKO or to mCherry (from UniProt P0AD65 1-633) (enzyme)”, the EfA (acceptor FRET efficiency) came out at 9.8% in assay [1], 10.5% in assay [2], 9.4% in assay [3] and 8.7% in assay [4].

On to “RodA (wild type), fused to mCherry or to mKO (from UniProt P0ABG7 1-370) (enzyme)”, for which the EfA (acceptor FRET efficiency) in assay [1] amounted to 4.2%; in assay [2], 11.8%; in assay [5], 6.2%; in assay [3], 7.6%; in assay [4], 5.5%.

Turning to “mCh-MreC (from UniProt P16926 1-367) (natural protein)”, the EfA (acceptor FRET efficiency) in assay [6] and in assay [2] was 5.4% in each case.

(Values after article PMC7793260.)
